# Measured values taken from paper PMC8200818, “SPECT/CT Imaging, Biodistribution and Radiation Dosimetry of a ^177Lu-DOTA-Integrin αvβ6 Cystine Knot Peptide in a Pancreatic Cancer Xenograft Model” (Frontiers in Oncology, 2021).
# What was measured:
# [1] = system: Capan-2 xenografts
# Excerpt: (§1) For in vivo experiments, at least 8-week-old female athymic NMRI-Foxn1^nu/Foxn1^nu mice (Janvier Labs, Saint-Berthevin, France) were used. Animal care followed institutional guidelines and all experiments were approved by local animal research authorities. For the generation of tumor xenografts, 5 x 10^6 cells of Capan-2 cells were inoculated subcutaneously into the left and right shoulder (1:1 phosphate-buffered saline [PBS]/Matrigel Basement Membrane Matrix High Concentration, Corning, Corning, USA). Tumors were allowed to grow for two to four weeks (tumor volume > 100 mm^3) after cell inoculation.
# (§2) Radiolabeling of the DOTA-integrin αvβ6 knottin was carried out manually using [^177Lu]LuCl3 and a reagent kit from ITG Isotope Technologies Garching GmbH (Garching, Germany). A total of 40 µL (stock solution of peptide at 1 µg/µL in 10% DMSO in water) was added to 500 µL of ascorbate buffer solution pH 5.0, prepared from the kit (composition not disclosed by vendor) and the resulting mixture was then added to 35 µL of [^177Lu]LuCl3 (2 GBq in aqueous 0.04 M HCl) and the reaction mixture was heated at 80 °C for 35 minutes followed by cooling for 10 minutes at room temperature. The product was then diluted with 0.5 mL of saline and the pH was adjusted to 7 using a 1 M aqueous solution of NaHCO3 prior to injection in mice. A reverse-phase HPLC system (Knauer GmbH, Germany) with a column (Eurospher II, C18, 250 × 4 mm) was used to determine the radiochemical purity of the radiotracer. The HPLC system was equipped with an Azura P.6.1L pump coupled with ultraviolet (Azura UVD 2.1L) and radiometric (γ-Raytest-Isotopenmessgeraete GmbH, Germany) detectors. The gradient elution system used mobile phase A (100% acetonitrile) and mobile phase B (deionized H2O containing 0.1% trifluoroacetic acid) and a flow rate of 1.0 mL/min. Starting with 0% A and 100% B, the gradient was increased to 100% A over 25 min and finally returned to initial gradient conditions within 5 min.
# SPECT and CT imaging were performed using the nanoSPECT/CTplus scanner (Mediso, Hungary/Bioscan, France). […]
# [2] = Dosimetric calculation for human adult male (OLINDA/EXM 1.1)
# Excerpt: Assuming that the organ-to-whole-body activity concentration ratio in mice would equal that in humans, the injected activity concentration (%IA/g) acquired from the mouse biodistribution study was transformed to human whole-organ percentage of injected activity per gram of tissue (%IA/g) human. The mouse uptake data were extrapolated to humans by relative scaling of mass and time using the following two equations,
# (1) (%IA/organ)human=[(%IA/g)mouse×Mmouse(kg)×[m(g)/M(kg)]human
# (2) thuman=tanimal[Mhuman/Manimal]^0.25
# where %IA/g is percentage of injected activity per gram of tissue, %IA/organ is percentage of injected activity per organ; m is organ mass of mouse or human, M is body mass of mouse or human; t is time. The absorbed doses per activity were calculated by using the extrapolated human source organ residence times as input in the OLINDA/EXM 1.1 software (Organ Level Internal Dose Assessment Code, Vanderbilt University, Nashville, USA), with the reference adult male ([25]).
# [3] = system: Capan-2 xenografts; experiment: in vivo; details: for Kidney uptake / Blood activity: ~1 MBq i.v.
# Excerpt: as §1, §2
# Tumor-bearing mice (n=4-5 per time point) were injected with approximately 1 MBq (22 pmol) of ^177Lu-DOTA-integrin αvβ6 knottin to the tail vein via a catheter. Mice (n=4-5 per time point) were sacrificed and dissected one, two, three and eight days post injection. Tumor, blood, stomach, pancreas, small intestine, colon, liver, spleen, kidney, heart, lung, muscle and femur samples were weighed and uptake of radioactivity was measured by a gamma counter.
# [4] = adult male human, extrapolated from mouse biodistribution
# [5] = 192 h p.i., nude mice, Capan-2 xenografts, mean ± SD (4 ≤ n ≤ 5)
compound,measurement,setting,value
"CC[C@H](C)[C@@H]1NC(=O)[C@@H](NC(=O)CNC(=O)CN2CCN(CC(=O)O)CCN(CC(=O)O)CCN(CC(=O)O)CC2)CSSC[C@@H]2NC(=O)[C@H](C)NC(=O)CNC(=O)[C@@H]3CCCN3C(=O)[C@@H]3CSSC[C@@H](C(=O)NCC(=O)O)NC(=O)[C@H](Cc4ccc(O)cc4)NC(=O)CNC(=O)[C@H](CC(N)=O)NC(=O)CNC(=O)[C@H](CCCNC(=N)N)NC(=O)[C@H](CSSC[C@H](NC(=O)[C@H](CCCNC(=N)N)NC(=O)[C@H](Cc4ccccc4)NC(=O)[C@H](CC(C)C)NC(=O)[C@H](CC(C)C)NC(=O)[C@H]([C@@H](C)O)NC(=O)CNC(=O)[C@H](CC(C)C)NC(=O)[C@H](CC(=O)O)NC(=O)[C@H]([C@@H](C)O)NC(=O)[C@H](CCCNC(=N)N)NC(=O)CNC(=O)[C@H](CC(N)=O)NC(=O)[C@H](CC(C)C)NC1=O)C(=O)N[C@@H](CCCNC(=N)N)C(=O)N[C@@H](CCCNC(=N)N)C(=O)N[C@@H](CC(=O)O)C(=O)N[C@@H](CO)C(=O)N[C@@H](CC(=O)O)C(=O)N3)NC(=O)[C@H]([C@@H](C)CC)NC2=O [^177Lu-DOTA-integrin αvβ6 knottin, metal not drawn]",Tracer accumulation (SPECT MIP),"[1]; 22 h p.i., 62 MBq i.v.",accumulation of ^177Lu-DOTA-integrin αvβ6 knottin in both the tumors and the kidneys
same,Uptake by other organs (SPECT),"[1]; 22 h p.i., 62 MBq i.v.",low or moderate
same,Initial kidney accumulation (SPECT),"[1]; kidney versus tumor, up to 3 h p.i.",higher initial accumulation
same,"Expected absorbed dose, Liver",[2]; [4],9.34E-04 mSv/MBq
same,"Expected absorbed dose, Thymus",[2]; [4],5.08E-06 rem/mCi
same,Dose-limiting organ,"[2]; human projection, preliminary",The absorbed doses in the kidney propose it as the dose-limiting organ
same,Tumor uptake,"[3]; 24 h p.i., ~1 MBq (22 pmol) i.v., nude mice, Capan-2 xenografts, mean ± SD (4 ≤ n ≤ 5)",3.13 ± 0.63 %IA/g
same,Kidney uptake,"[3]; 24 h p.i., nude mice, Capan-2 xenografts, mean ± SD (4 ≤ n ≤ 5)",19.2 ± 2.5 %IA/g
same,Blood activity,"[3]; 48 h p.i., nude mice, Capan-2 xenografts, mean ± SD (4 ≤ n ≤ 5)",0.00 %IA/g
same,Blood activity,[3]; [5],0.00 %IA/g
same,Kidney uptake,[3]; [5],2.3 ± 0.40 %IA/g
same,Tumor uptake compared with ^64Cu conjugate,"[3]; comparison with earlier study, cited there as [19]",tumor uptake was not found to be higher
same,Kidney wash-out versus tumor (ex vivo),"[3]; days 1, 2, 3 and 8 p.i., listed as 177Lu tracer",in the tumor the activity was cleared at a much lower rate than in the kidney
same,"Activity in organs like stomach, colon and lung",[3]; later time points,low or moderate activity
